Experiments:
[1] = target: T1, PpATase (multicomponent acyltransferase, PhlA/PhlB/PhlC) (Pseudomonas protegens, UniProt Q4K420); assay: X-ray crystal structure ([…] Å) of crystal soaked with MAPG; type: binding; conditions: PG bound at PhlC active site (4 of 8 PhlC copies) next to acetylated Cys88; formed in the crystal from soaked MAPG
T1 construct: codon-optimized phlA, phlB, phlC ORFs co-expressed in E. coli; size-exclusion purified for crystals, cell-free extract for activity; heterododecamer Phl(A2C2)2B4; with 2,4-diacetylphloroglucinol biosynthesis protein PhlA; 2,4-diacetylphloroglucinol biosynthesis protein PhlB

[2] = target: PhlA subunit of the acyltransferase from Pseudomonas protegens DSM 19095 (PpATase) (Pseudomonas protegens DSM 19095); assay: crystal structure; PpATase complex (PhlA, PhlB, PhlC co-expressed, purified by SEC); hexagonal crystal form (P6_(1)22, untreated, 2.8 Å) and orthorhombic crystal form (P2_(1)2_(1)2_(1), soaked with MAPG, 3.4 Å); crystallised at 289 K; protein-protein interactions in the crystal analysed with the EBI-Pisa server
[3] = target: PhlC subunit of the acyltransferase from Pseudomonas protegens DSM 19095 (PpATase) (Pseudomonas protegens DSM 19095); assay: as above

Compound: Oc1cc(O)cc(O)c1 [PG, benzene‐1,3,5‐triol]
- X-ray crystal structure (3.4 Å) of crystal soaked with MAPG [1]: This density was compatible with an acetylated Cys88 residue and with a (deacetylated) PG molecule

Compound: PhlA subunit of the acyltransferase from Pseudomonas protegens DSM 19095 (PpATase) (natural protein)
- stoichiometry N [2]: 2

Compound: PhlC subunit of the acyltransferase from Pseudomonas protegens DSM 19095 (PpATase) (natural protein)
- stoichiometry N [3]: 2

Source: PMC6392133, “Structure and Catalytic Mechanism of a Bacterial Friedel–Crafts Acylase” (Chembiochem, 2018)
